{
  "source": "paper doi:10.1101/739813",
  "about": "(bioRxiv, 2019)",
  "key": {"[1]": {"molecular_target": "the molecule itself", "assay": "crystal structure"}, "[2]": {"molecular_target": "pRab8a(GTP): Rab8a (Q67L, residues 1-181) phosphorylated at T72, GTP-bound (UniProt P61006)", "sequence (P61006 1-181 Q67L)": "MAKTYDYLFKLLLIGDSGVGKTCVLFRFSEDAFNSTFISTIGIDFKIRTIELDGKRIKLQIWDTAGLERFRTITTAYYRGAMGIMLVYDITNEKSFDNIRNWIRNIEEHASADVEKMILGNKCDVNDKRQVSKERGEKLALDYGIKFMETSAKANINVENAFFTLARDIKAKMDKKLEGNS", "assay": "ITC"}},
  "note": "Where no end group is shown, it is not given here.",
  "data": [
    {"binder": "His6-NRPRFTLQELRDVLQERNKLKSQLLVVQEELQCYKSG (peptide, UniProt Q969X0 129-165, looked up)", "note": "[His6-RILPL2, phospho-Rab binding domain of RILPL2 (residues 129-165)]", "values": [
      {"measurement": "binding result", "setting": "[1]", "result": "binds"},
      {"measurement": "Kd", "setting": "[2]", "result": 3.3, "unit": "µM"}
    ]}
  ]
}
